B1: BDNF: BDNF recombinant protein (protein, UniProt P23560 19-247, looked up)
Neurotrophic factor BDNF …: APMKEANIRGQGGLAYPGVRTHGTLESVNGPKAGSRGLTSLADTFEHVIEELLDEDQKVRPNEENNKDADLYTSRVMLSSQVPLEPPLLFLLEEYKNYLDAANMSMRVRRHSDPARRGELSVCDSISEWVTAADKKTAVDMSGGTVTVLEKVPVSKGQLKQYFYETKCNPMGYTKEGCRGIDKRHWNSQCRTTQSYVRALTMDSKKRIGWRFIRIDTSCVCTLTIKRGR

Experiments:
neural stem cell = test: DA and 5-HT in dialysate of neural stem cell medium after NGF induction (microdialysis, HPLC-ED); type: cell-based; settings: after induction with polyornithine/laminin-coating plate and NGF of neural stem cell
Protocol: (§1) A microdialysis system consists of a basic microdialysis pump (CMA/100, CMA, Stockholm, Sweden), a fraction collector (CMA/140, CMA), and a microdialysis probe cemented to a Petri dish (FIG. 3). The dialysis probe was made of a dialysis membrane 30 mm in length, 150 μm in outer diameter, and a nominal molecular weight cutoff of 13,000. Ringer solution (8.6 g/L NaCl, 0.3 g/L KCl, and 0.33 g/L CaCl2) was perfused through the probe at a flow rate of 2 μl/min. Microdialysate samples were collected every 10 min. Each microdialysate of 10 μl was injected manually into the chromatographic system and was assayed on the same sampling day. The Liquid chromatography and electrochemical detection contains a model HTEC-500 LC-ED system (Eicom, Kyoto, Japan), consisting of a three-electrode cell with Ag/AgCl as the reference electrode, a counter-electrode, and a graphite electrode as the working electrode, were used to measure dopamine (DA) and serotonin (5-HT). The experiment employed a graphite working electrode with a 25-μm gasket with the applied potential set at +450 mV versus Ag/AgCl. The column used for the separation of DA and 5-HT was a PP-ODS column (4.6×30 mm, Eicom) at room temperature (25° C.). […]

PC-12 cells = test: DA and 5-HT in dialysate of PC-12 cells medium after NGF induction (HPLC-ED); type: cell-based; settings: after induction with NGF of PC-12 cells
Protocol: as §1

LPS-treated NSCs [1] = test: ELISA of IL-1β, IL-6 and TNF-α in LPS-treated NSCs; type: cell-based, rat; settings: vs only LPS-treated NSCs; IM 3 μM; p<0.05
Protocol: (§2) IM was purchased from Sigma Chem. Co., St Louis, Mo., USA. NSCs were seeded on 24-well plates at a density of 2×10^4 cells/well in medium, followed by methyl thiazol tetrazolium assay (MTT assay) (Sigma-Aldrich Co., St Louis, Mo., USA) for cell viability. NSCs were incubated with 0.25 mg/ml MTT for 4 hours at 37° C. and the reaction was terminated by the addition of 100% isopropanol. The amount of MTT fromazon product was determined using a microplate reader and the absorbance was measured at 560 nm (SpectraMax 250, Molecular Devices, Sunnyvale, Calif., USA). NSCs were exposed to 0, 1, 2, 5, 10, 20, 30, 40, 50, 100, 200, and 300 μM of IM for 1, 3, 5, and 7 days, respectively. The activities of caspases 8 and 3 (Medical and Biological Laboratories Co., Ltd., Nagoya, Japan), and the concentration of IL-6, IL-1 and TNF-α (Pharmingen, San Diego, Calif., USA) were determined by ELISA kits and quantified by reading at 490 nm (MRX; Dynatech Laboratories, Chantilly, Va., USA). Each individual sample was analyzed in triplicate.
(§3) Double-stranded, short interfering RNA (siRNA) of BDNF and Bcl-2 were chemically synthesized by Ambion Inc., Austin, Tex., USA). The sense and antisense sequences of BDNF were designed as follows: Sense: […]tt; Antisense: AGCTTAAAAAGAG CTGtt, starting from nucleotide 137 of the Bcl-2 sequence (accession number L14680). The sense and antisense sequences of Bcl-2 were designed as follows: Sense: GCGCUGGAUAUAACUUCUUtt; Antisense: AAGAAGUUAUAUC CAGCGCtt, starting from nucleotide 137 of the Bcl-2 sequence (accession number L14680). In this test, the siRNA control used was siRNA-Cy3 (QIAGEN; sense sequence: UUCUCCGAACGUGU CACGUdTdT-3′-Cy3 and the complement 5′-ACGUGACACGUUCGGAGAAdTdT-3′-Cy3) as an irrelevant control. The transfection of siRNA was performed using Lipofectamine 2000 (Invitrogen, Carlsbad, Calif., USA) according to the manufacturer's instructions. In brief, cells were harvested with 0.25% trypsin, 1 mM ethylenediaminetetraacetic acid (EDTA) in phosphate buffered saline (PBS) without Ca^2+ and Mg^2+, and plated in six-well plates at 10^5 per cm^2. Then 3.5 μl siRNA (100 μM solution) was mixed with 125 μl serum-free culture medium for 5 minutes at room temperature. During this incubation period, 5 μl of Lipofectamine 2000 was diluted in 125 μl serum-free culture medium. These two mixtures were combined, mixed gently, and incubated for 20 minutes at room temperature for complex formation. This 250 μl of siRNA-Lipofectamine mixture was then added into the cells in a final volume of 2.5 ml per well. The transfected cells were cultured and fed daily with fresh medium until they were assayed.

LPS-treated NSCs [2] = test: LPS-induced apoptotic activity in NSCs, caspase 8 and 3 ELISA; type: cell-based, rat; settings: vs only LPS-treated NSCs; p<0.05
Protocol: as §2, §3

Bcl-2 = Bcl-2 protein expression in NSCs by western blot and immunocytochemistry; type: cell-based, rat; settings: treatment with either agent alone
Protocol: After the treatment with IM, the cell lysates of the NSCs were collected and the concentration of protein was determined by using the Protein Assay kit (Bio-Rad, Hercules, Calif., USA). Cell extracts with sample buffer were boiled for 5 minutes and then separated by 10% SDS-PAGE gel. After electrophoresis, the gel was transferred onto a PVDF membrane for immunoblotting. The membrane was first blocked by incubation in non-fat milk at room temperature for 2 hours, then incubated with anti-Bcl-2 antibody (Upstate Biotechnology Inc, Waltham, Mass., USA), and anti-β actin (Chemicon International Inc, Temecula, Calif., USA) for 2 hours at room temperature, washed five times with Tris-Buffered Saline Tween-20 (TBST), and then incubated further at room temperature with horseradish peroxidase-conjugated secondary antibody for 2 hours. Then the membrane was washed six times with TBST and specific bands were made visible by chemiluminescence (Santa Cruz Biotechnology, Santa Cruz, Calif., USA).
as §3
An avidin-biotin complex method was used for the immunohistochemical staining in the differentiated NSCs. Following washes with the 3% hydrogen peroxide, sodium azide and antigens were retrieved using a microwave. Each slide was then treated with antibodies for Bcl-2 (Upstate Biotechnology, Waltham, Mass., USA), Nestin (Chemicon, Temecula, Calif., USA), 4′, 6-diamidino-2-phenylindole (DAPI; Chemicon, Temecula, Calif., USA) and MAP2 (Chemicon, Temecula, Calif., USA). Immunoreactive signals were detected with a mixture of biotinylated rabbit anti-mouse IgG and Fluoresave (Calbiochem, La Jolla, Calif., USA) under confocal microscopy (Olympus, FV300). Each individual sample was analyzed in triplicate. Furthermore, apoptotic cells were identified by the TUNEL method (In Situ Cell Death Detection Kit, POD, Roche Boehringer Mannheim Corp., IN, USA) as described in Chiou et al., J. Immunol. 167, 4098-4103, 2001. Briefly, the cells with cover slips were washed with 1× phosphate buffered saline (PBS), fixed with 4% of paraformaldehyde for 10 minutes, permeabilized with 0.1% of triton X-100 for 5 mins, and incubated with the TUNEL reagent provided for 1 hour. Chromogenic development was then applied with 3-amino-9-ethyl-carbazole, and slides were counterstained with H & E stain. […]

LPS-treated NSCs [3] = test: Cell survival rate of LPS-treated NSCs; type: cell-based, rat; settings: vs only LPS-treated NSCs; LPS 100 ng/ml
Protocol: as §2
as §3, with “Then 3.5 μl siRNA (100 μM solution) was mixed with 125 μl serum-free culture medium for 5 minutes at room temperature. During this incubation period, 5 μl of Lipofectamine 2000 was diluted in 125 μl serum-free culture medium. These two mixtures were combined, mixed gently, and incubated for 20 minutes at room temperature for complex formation. This 250 μl of siRNA-Lipofectamine mixture was then added into the cells in a final volume of 2.5 ml per well. The transfected cells were cultured and fed daily with fresh medium until they were assayed.” left out

apoptotic activities in LPS-treated NSCs (LPS-treated NSCs [2]) | Molecule | 5-HT concentration in dialysate (neural stem cell; basal 0.18 ng/ml) [ng/mL] | DA concentration in dialysate (neural stem cell; basal 6.04 ng/ml) [ng/mL] | 5-HT concentration in dialysate (PC-12 cells; basal 0.18 ng/ml) [ng/mL] | DA concentration in dialysate (PC-12 cells; basal 6.04 ng/ml) [ng/mL] | IL-1β production in LPS-treated NSCs (LPS-treated NSCs [1]) | IL-6 production in LPS-treated NSCs (LPS-treated NSCs [1]) | TNF-α production in LPS-treated NSCs (LPS-treated NSCs [1]) | Bcl-2 expression in NSCs (Bcl-2) | cell survival rate in LPS-treated NSCs (LPS-treated NSCs [3])
– | NGF: NGF used to induce neural stem cells / PC-12 cells | 2.84 | 46.9 | 2.94 | 50.06 | – | – | – | – | –
significantly inhibited | B1 | – | – | – | – | significantly inhibited | significantly inhibited | significantly inhibited | activate | significantly increases

Reference: patent US20090105562A1, “SYSTEM AND METHODS FOR SCREENING OR ANALYZING TARGETS” (TAIPEI VETERANS GENERAL HOSPITAL, priority 2007, published 2009)
